{"source": "patent US20260209761", "about": "“RNA-GUIDED ENDONUCLEASE SYSTEM AND USE THEREOF IN GENE EDITING” (HARBIN INSTITUTE OF TECHNOLOGY, published 2026)", "biological_target": "T1, FbRAD1/ISFba1 (RHS75625.1) (Firmicutes bacterium AM43-11BH)", "T1 chain": "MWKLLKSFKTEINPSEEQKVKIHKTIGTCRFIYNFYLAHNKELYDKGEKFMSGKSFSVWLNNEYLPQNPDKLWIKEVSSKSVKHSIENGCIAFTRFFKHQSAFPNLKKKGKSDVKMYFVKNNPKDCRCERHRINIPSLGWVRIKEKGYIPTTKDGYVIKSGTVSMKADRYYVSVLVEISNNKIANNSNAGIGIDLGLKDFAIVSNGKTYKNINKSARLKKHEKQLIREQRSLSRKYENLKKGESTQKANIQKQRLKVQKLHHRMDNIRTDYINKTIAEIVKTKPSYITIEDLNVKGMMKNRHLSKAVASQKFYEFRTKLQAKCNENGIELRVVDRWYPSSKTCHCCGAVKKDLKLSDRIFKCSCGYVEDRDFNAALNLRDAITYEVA", "assay": "co-purified RNA, degraded by RNase not DNase; about 180 nt; RNA-seq", "conditions": "tags: GST (cleaved by PreScission), C-terminal 6His per expression cassette; stem loop, long hairpin with inner loop and pseudoknot (predicted)"}
{"binder": "FbRAD1 RAGATH-18-associated RNA (ssRNA) RNA: CUAAAACGCAAACGUAAGUAUGUACCGAAGGCUAUUUUCGGGAAUUUACGACUAUGGAGUGUACAAGAACUUGUGAGUAGAUAUGAUUUCGGUCAAUCCAAAGCAUACACGAUGAAAUAGUAAGUAAUGUUCGUGAGAACUUACAUUAUCUCGAUGUGAGCAUAUUUAAUCACAUUUUGAGUGGCAG", "values": [{"measurement": "binding result", "result": "binds"}]}
